Source: the supplement of paper PMC12042874
± gives the uncertainty stated by the source.

assay: amyloid nucleation score (Sup35N fusion, yeast selection) (log enrichment); library NNK3; higher = more nucleation; inactive = no reads after selection
In short: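 The nucleation score is a DiMSum log enrichment of output over input reads, centred on the mode score of non-aggregating sequences. Sequences under 100 input reads were excluded, and reads came from Illumina sequencing of plasmid inserts. Psi-negative yeast expressing Sup35N fused to peptides of 20 random codons were induced with 100 μM copper sulfate for 24 hours and grown 7 days at 30°C on medium lacking adenine and uracil. Random libraries had three technical output replicates.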

Amyloid nucleation score, 0.725 ± 0.14:
YFFIPLMF

Amyloid nucleation score, -0.116 ± 1.1:
WLVKGPVCKGSAS

Amyloid nucleation score, -0.174 ± 0.59:
WYWSLA

Amyloid nucleation score, 0.392 ± 0.54:
WLSYKSH

Amyloid nucleation score, 1.64 ± 0.075:
WLNKWTHGVIANFYVVSGHP

Amyloid nucleation score, 0.988 ± 0.13:
WRSMAFPVVK

Amyloid nucleation score, 1.5 ± 0.092:
WILLGRSSQWSWASGGNSGQ

Amyloid nucleation score, 1.33 ± 0.076:
YAFLTYFSKVIDSVF

Amyloid nucleation score, 0.862 ± 0.16:
YCPRLRVRVCWFGTSSLDFQ

Amyloid nucleation score, 0.339 ± 0.37:
WNYHFPSS

Amyloid nucleation score, 1.3 ± 0.15:
WRDRNF

Amyloid nucleation score, -0.411 ± 0.69:
WPIATTMSKGVCVRRVRGRD

Amyloid nucleation score, 0.012 ± 0.68:
WVDFTTWLKFVFRSSIHYLL

Amyloid nucleation score, -0.744 ± 0.8:
WIRYTFYQNFRIL

Amyloid nucleation score, 0.128 ± 0.3:
WQCNCGASICASHKKCANMN

Amyloid nucleation score, 0.974 ± 0.089:
WVRSFMSLCFW

Amyloid nucleation score, 2.62 ± 0.059:
WNVWVLPIFIAFGLEPPRLE

Amyloid nucleation score, inactive:
WCTSFGELEVYRVALILRTA
WDIWCRS
WDYGKWE
WETFPHSFINVLIWDSFELV
WFAWIH
WFCLRTTVTPLDGFVLWYWE
WFFLGFVLIIKWLGLHQYSF
WFGEYPQFWRARSYFRTSDW
WFGLIFFLICLYTPQLSLKL
WFLFRINQFKL
WFLSLLSQLGYGQVFVDFIP
WGSLMFRVYTKMFEALERVL
WGVSLLVFHVTKQVRNRFYY
WHSMSCFSPKLGWDQFPVLR
WIGRTLLDSYDGRFSIAIRD
WIKLNLTYAHWWNMV
WILSYLDNCARSRQ
WISSGDIGRVVDWIQVCIEP
WISSSGIPFDRYLLWYNSVG
WIYGYAVSLRSLYGLNLSM
WKAFNVTPFRGWVNVAVLA
WLCWQHSDLMNRDCNGLTLG
WLESHGDHGFNEKDSWWPYF
WLFMIARTYR
WLFRGVVRNRRALARGIRAG
WLHSGYGSNLPKATMRYCPN
WLIFYVYIVGDPAWLLVFMS
WLLEKYKLCMGWFFYSDFLT
WLVYPC
WMVYDSLILFHDVRRSYLPM
WNGILHMMVGGLKTLIGMDY
WNLFDHRIGNKQRNGYDVYE
WNLHLLICEKSHTMEVMLLR
WPAVEKSLRRECFIVLRPFG
WPGNWSQFNQCWCRETTCYV
WPLTCCDFSPSDSAIGRM
WPSLYHQMYGVYLGLLVILK
WRHDMSIFQAQLSTLVGI
WRLEL
WRTSMVASILRVRWEYLKWK
WSCESNDVHSCWWWLGGFNT
WSLMCRVAYRYGRVRNSKSG
WSLPSRLIRDVGSSWIYFCL
WTGFFCNAVKTTTGFNALFL
WTLRFLVKGSRCQFVAP
WVCPCKSGMSQNWRFYNPSR
WVDFFMFWGFAMNENKWFVH
WVKNLVFEGHVGA
WVLDSERQMANSLWSGGGLA
WVMCFVAWCSAFLRTNFIDM
WVVPSWCHSFPLMIIKRTCC
WWAISTLGMGNQLFLGVPRY
WWDTLIAGSLPKLTWNQKTG
WWTLKPGESVVRGLRVCGAP
WYGLA
WYIFFMEVMAGRY
WYLSYSTIAFHYWEFYGYAD
WYNDVMEVESLISYVDFFRE
YACRMKEFYGCILSRVRVWL
YAFISWNS
YAGSCK
YANDANSCDWCICAFDRRSC
YANFVRYNRLVKDRAVRSPK
YARHSLDMRTSRDLTTLLGL
YASVRVGMPSCDECGMFCLE
YAVLNELVTRSCLYAVSFTI
YAYEIRRLT
YCLFASMKDDAQGTQNCDRS
YCSIMYVCNKILFNAAKARL
YCTYN
YCVMNSAINSLRSMAIWSFA
YCVSGMVMCCH
YDCMSRVLAMARATMCRLGD
YDKVFLPLGWHWPERPMGQT
YDLTFVGWMDYCNLPMVRLI
YDNLTARESSYFIFFCFLVY
YDNVDNYTTEISVNGCLMMN
YDSRWLDGSACKNKVQFGCQ
YDSVNLSLVLHSKRHYAYCA
YDSYTGRHNKLILRM
YDTHWTVCLLSTCLTL
YDYTRCLLYFVALRYQGGNS
YEARSWE
YETVMFSS
YEVPFSNASWRDGQMRCRCS
YEVSTRRRVM
YFANTVRTFLVLLQAFVLVV
YFDSWTSMSAYYMGSFHW
YFEVSLIRLYHEKTTTRMVY

Amyloid nucleation score, 1.36 ± 0.097:
WVQVCCVNTNGRSFQLEGSI

Amyloid nucleation score, -0.567 ± 1.5:
WGMLRTTT

Amyloid nucleation score, 0 ± 0.59:
WTKECISIGRTWIYRRVGRG

Amyloid nucleation score, 2.8 ± 0.062:
YFCSCFRFSLNN

Amyloid nucleation score, 1.6 ± 0.11:
WGLRFFIWQPRDMFSACCTC

Amyloid nucleation score, 0.97 ± 0.18:
WHNMSMMKSVPTYSGESHTR

Amyloid nucleation score, 1.49 ± 0.11:
WYVYTNIRNVSYDIFDNKKF

Amyloid nucleation score, 1.19 ± 0.1:
YCIVLKYNQLLSTMSANNMY

Amyloid nucleation score, 2.72 ± 0.078:
WNVPGVHCCIWVTRWEMGPT

Amyloid nucleation score, -0.113 ± 1:
WVESESQETHHIAM

Amyloid nucleation score, 1.32 ± 0.087:
WEDMVDNHE
